Measurements from article PMC10441969, “Small protein Cgl2215 enhances phenolic tolerance by promoting MytA activity in Corynebacterium glutamicum” (Stress Biology, 2022).

Target: T1, His6-MytA (C. glutamicum, UniProt P0C1D6 44-657)
T1 sequence (looked up): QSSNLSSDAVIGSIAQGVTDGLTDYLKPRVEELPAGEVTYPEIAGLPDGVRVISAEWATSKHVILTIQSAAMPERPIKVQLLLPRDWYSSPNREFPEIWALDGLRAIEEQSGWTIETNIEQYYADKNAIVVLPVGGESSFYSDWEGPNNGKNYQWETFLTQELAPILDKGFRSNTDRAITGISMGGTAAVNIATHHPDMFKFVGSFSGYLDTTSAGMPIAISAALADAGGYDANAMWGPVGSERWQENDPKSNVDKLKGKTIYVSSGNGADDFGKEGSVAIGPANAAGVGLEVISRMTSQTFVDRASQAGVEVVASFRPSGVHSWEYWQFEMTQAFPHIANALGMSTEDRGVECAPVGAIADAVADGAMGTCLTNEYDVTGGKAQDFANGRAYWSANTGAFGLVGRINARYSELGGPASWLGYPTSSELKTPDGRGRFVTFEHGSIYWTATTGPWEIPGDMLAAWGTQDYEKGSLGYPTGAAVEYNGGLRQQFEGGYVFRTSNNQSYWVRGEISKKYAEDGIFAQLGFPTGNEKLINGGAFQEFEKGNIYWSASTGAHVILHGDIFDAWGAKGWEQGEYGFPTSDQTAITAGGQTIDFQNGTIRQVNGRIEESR
Test: cell-based or functional assay

B1: GST-Cgl2215 (natural protein, C. glutamicum, UniProt Q8NNI6 1-71, looked up)
chain: MNHKLFGSKQFRKEKEMGLRIRPNEMKVWETFTLERQLEVIINADHLLLFRGEPHGTVSLSDVVASELIGI
in vitro esterase activity of MytA (release of p-NP from p-NPP; MytA 4.7 μM) with GST-Cgl2215 at a 1:1 ratio of GST-Cgl2215:MytA and higher ratios (further increased): 1.6 fold
